In article PMC4513104, “Fatty Acid-binding Proteins Interact with Comparative Gene Identification-58 Linking Lipolysis with Lipid Ligand Shuttling*” (The Journal of Biological Chemistry, 2015):

Key:
[1] = biological target: T1, Gst-Cgi-58 (mouse, UniProt Q9DBL9 1-351, Sulfo-SBED cross-linker covalently linked (label transfer); fluorescent label NT-495 by NHS coupling (microscale thermophoresis)); assay: MST; Gst-tagged Cgi-58 labelled with NT-495 (NHS coupling) at constant amount; unlabeled Strep-tagged A-Fabp 8 nM to 250 μM; 100 mM Tris, pH 8.0, 150 mM NaCl, 1 mM EDTA, 0.05% Tween 20; Monolith NT.115, duplicate; details: both partners purified
T1 construct: comparative gene identification-58 (Cgi-58), mouse; also called Gst-tagged Cgi-58; mouse Gst-Cgi-58
T1 sequence (looked up): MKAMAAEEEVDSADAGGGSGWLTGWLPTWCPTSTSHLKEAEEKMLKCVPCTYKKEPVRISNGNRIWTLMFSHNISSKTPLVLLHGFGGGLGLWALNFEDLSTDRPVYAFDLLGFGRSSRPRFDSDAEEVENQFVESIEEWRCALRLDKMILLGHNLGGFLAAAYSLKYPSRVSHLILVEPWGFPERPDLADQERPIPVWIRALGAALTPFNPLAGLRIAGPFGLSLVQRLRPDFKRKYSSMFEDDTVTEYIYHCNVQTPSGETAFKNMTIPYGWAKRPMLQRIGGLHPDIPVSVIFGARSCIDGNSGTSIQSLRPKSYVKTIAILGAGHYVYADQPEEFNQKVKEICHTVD

[2] = biological target: T2, m^solCgi-58 (mouse, UniProt Q9DBL9 2-351, S239E); assay: NMR titration; 1H-15N HSQC of 50 μM 15N labeled A-Fabp with 0, 10, 25, 50, 100 and 200 μM m^solCgi-58; 15 mM Na2HPO4/KH2PO4, pH 7.0, 300 mM NaCl, 1 mM DTT, 1 mM EDTA; 298 K; details: both partners purified
T2 construct: mouse Cgi-58, Lys-2–Asp-351, with S239E; preceded by a TEV protease cleavage site and cleaved by TEV; used for NMR experiments only; also called mCgi-58^S239E; cgi-58_S239E variant with increased solubility; source: E. coli BL21(DE3), co-expressed with the chaperone Tig, purified (His-Trap, TEV cleavage, Superdex 200); not shown: His tag, N-terminal, cleaved; SUMO, N-terminal, cleaved
T2 sequence (looked up): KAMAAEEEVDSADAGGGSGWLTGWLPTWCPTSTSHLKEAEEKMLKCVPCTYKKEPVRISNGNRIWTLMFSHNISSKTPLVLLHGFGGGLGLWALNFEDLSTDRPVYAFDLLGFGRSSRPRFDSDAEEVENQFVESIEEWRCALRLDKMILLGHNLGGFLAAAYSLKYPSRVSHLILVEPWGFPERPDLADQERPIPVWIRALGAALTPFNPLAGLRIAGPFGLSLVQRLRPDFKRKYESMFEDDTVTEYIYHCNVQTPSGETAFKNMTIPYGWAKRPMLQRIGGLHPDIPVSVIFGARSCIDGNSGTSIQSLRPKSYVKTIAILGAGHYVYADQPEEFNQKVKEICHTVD

B1: Strep-tagged A-Fabp (natural protein, human, UniProt P15090 1-132, looked up)
chain: MCDAFVGTWKLVSSENFDDYMKEVGVGFATRKVAGMAKPNMIISVNGDVITIKSESTFKNTEISFILGQEFDEVTADDRKVKSTITLDGGVLVHVQKWDGKSTTIKRKREDDKLVVECVMKGVTSTRVYERA
modifications: 15N (and 13C) labelled in the NMR experiments
notes: residue numbers start with methionine as the first amino acid; vector pASK-IBA5plus; also called Strep-A-Fabp; source: E. coli BL21(DE3), purified (Strep-Tactin)
Question: Which Kd [1] does the source give for B1 here?
Answer: 192 ± 22 µM

Question: Does B1 bind [2]?
Answer: binds
